Assay results reported in patent US20060235215A1 (published 2006).

B1: O. sativa Putative Proline-Rich Protein AAK63900, prey clone aa 122-224 (other)
chain: AAVAGKTHYRSALCASVTICGPIKKKIIDHFHKKPVPPKPEPKPEPPKPKPEPEHPFLDHIHKKEKHFFDHFHKKPVPPKPEPKPEPKPQPAPEYHNPSPPAN
notes: prey; AD fusion; input trait library; also called OsAAK63900; PN23266
B2: Hypothetical Protein ORF020300-2233.2, Putative PP2A Regulatory Subunit, Similar to OsCAA90866, prey clone aa 93-387 (other)
chain: LLVPYYLGEMTERVAQEDRIPVLKASQDHLKEFISICEALELISEDELELSRQKQPDTMANRRAQKAARFKRQKAAETKLLEIKERKERRRRSLRAAALSAPIEAGEEDAFEDDGEEEREAWLATISLALCKAFDLLDMLKKEEEMLLAVKERQAKDGNAFAREMLDERTKKAEAWHHNAANRAPYSKPADPITCATFAQDVIEGRASVSQAHEHKHQPLIFGPASLVGGGLTSERERMAAQVFQPSYRLPTMSIEEAGLREMKMMEKWQERTAKMIQESNSAWHKDGSRSAQED
notes: prey; AD fusion; input trait library; also called OsORF020300-2233.2
B3: Hypothetical Protein ORF020300-2233.2, Putative PP2A Regulatory Subunit, Similar to OsCAA90866, prey clone aa 118-388 (other)
chain: SQDHLKEFISICEALELISEDELELSRQKQPDTMANRRAQKAARFKRQKAAETKLLEIKERKERRRRSLRAAALSAPIEAGEEDAFEDDGEEEREAWLATISLALCKAFDLLDMLKKEEEMLLAVKERQAKDGNAFAREMLDERTKKAEAWHHNAANRAPYSKPADPITCATFAQDVIEGRASVSQAHEHKHQPLIFGPASLVGGGLTSERERMAAQVFQPSYRLPTMSIEEAGLREMKMMEKWQERTAKMIQESNSAWHKDGSRSAQEDE
notes: as for B2
B4: Novel Protein 23268, Similar to Phosphoribosylanthranilate Transferase, Chloroplast Precursor, Fragment, prey clone aa 12-200 (other)
chain: SEEEAEATLRLLLEEENEARIAAFLVLLRAKGETYEEIVGLAKAMIGCCVRVDGLDDAVDIVGTGGDGADTVNISTGSTILAAAAGAKVAKQGSRASSSACGSADGIKRCVNEVGVGFMMSANYHPAMKIVKPVRKKLKIKTVFNILGPLLNPARVPYAVIGVYHENIVTKMAKAAQKFGMKRALVVHS
notes: prey; AD fusion; input trait library; two clones; also called OsPN23268; Os23268
B5: Novel Protein PN26645, Putative Protein Disulfide Isomerase-Related Protein Precursor, prey clone aa 24-164 (other)
chain: PLPEACPVPTAAEEILGPGGTCTTLDRRGDPVGVIEGDEVTLAKAITLLHMNKDDYIAVLFYASWCPFSQECKPNFEILASLFPSIRHFAFEESSIRPSIISRYGIHGFPTLFLLNSTMRVRYHGPRTVKSLAAFYRDVSG
notes: prey; AD fusion; input trait library; also called OsPN26645
B6: Novel Protein PN22823, Similar to ABC Transporter Proteins, prey clone aa 25-106 (other)
chain: SSSGKKVPLFSLFRYADRLDVLLMVVGTVGALGNGISQPLMTVLFGNVINSFGANTSGSVLRSVTKVKVSCWTMAGERQSAR
notes: prey; AD fusion; input trait library; also called OsPN22823
B7: Novel Protein PN29041, Fragment, Similar to A. thaliana Putative ATPase, prey clone aa 5-108 (other)
chain: VQIRRALRALVDDHTDGLMDFEDTEVRSSEETDALEEARLAIEQVVIPKGESVQLLPRPPSIIASQVDLVESFKLKWESIGQEPNACLRILPQFVGVEEGGKSV
notes: prey; AD fusion; input trait library; two clones; also called OsPN29041
B8: Novel Protein PN22020, Fragment, Similar to A. thaliana Putative Protein, prey clone aa 76-170 (other)
chain: ANATDGVKPLVGSARLPLRDVLADTGIGARASRSLRLKRPSGRPHGRLEVRVAVREPKRYYDPSPAYPAPYHQQTNRDPYAYGNTTTGGYGYAYG
notes: prey; AD fusion; input trait library; three clones; also called OsPN22020
B9: Novel Protein PN22020, Fragment, Similar to A. thaliana Putative Protein, prey clone aa 128-170 (other)
chain: AVREPKRYYDPSPAYPAPYHQQTNRDPYAYGNTTTGGYGYAYG
notes: prey; AD fusion; input trait library; also called OsPN22020
B10: Elicitor responsive protein, prey clone aa 54-144 (other)
chain: ETFMFSVTHNATELIIKLMDSDSGTDDDFVGEATISLEAIYTEGSIPPTVYNVVKEEEYRGEIKVGLTFTPEDDRDRGLSEEDIGGWKQSS
notes: prey; AD fusion; input trait library; also called OsERP; PN20696
B11: OsSGT1, prey clone aa 9-227 (other)
chain: LESKAKAAFVDDDFELAAELYTQAIEASPATAELYADRAQAHIKLGNYTEAVADANKAIELDPSMHKAYLRKGAACIRLEEYQTAKAALELGYSFASGDSRFTRLMKECDERIAEELTEVPVKKAEDGAAAPSVASFVEEKDDAANMDNTPPMVEVKPKYRHDFYNSATEVVLTIFAKGVPAENVVVDFGEQMLSVSIEVPGEEPYHFQPRLFSKIIPE
notes: prey; AD fusion; output trait library; also called PN20285
B12: Novel Protein PN29950, prey clone aa 138-343 (other)
chain: RRQGGEGQVDFGSMISSVLNNPAFGNLLSNVAEQTGMGSAGDLRNMVEECAQSPAIMDTMSNLVQNVDGSGRGQGGIDLSRMMQQMMPVVSQVLGGAGARPAGTNSGQSRLQPRRSDMRVDDASDYGNSQIDLHQAREHIEQHDSPRDIFGAVLETAAQAYGEDESIEDMLEELVSDPELTDDYLKLLLQQVRQRIQSASQSGNQS
notes: prey; AD fusion; output trait library; two clones; also called OsPN29950
B13: Novel Protein PN29950, prey clone aa 50-343 (other)
chain: ASSRSEPVGLGGGLQPKRRSRTAKPPGSSSDTGEVVNSSRISNSQNAVSMGQQVLQALASQNTNVNRSHVTDSPLPSTTSQFSGGMPPRRQGGEGQVDFGSMISSVLNNPAFGNLLSNVAEQTGMGSAGDLRNMVEECAQSPAIMDTMSNLVQNVDGSGRGQGGIDLSRMMQQMMPVVSQVLGGAGARPAGTNSGQSRLQPRRSDMRVDDASDYGNSQIDLHQAREHIEQHDSPRDIFGAVLETAAQAYGEDESIEDMLEELVSDPELTDDYLKLLLQQVRQRIQSASQSGNQS
notes: prey; AD fusion; output trait library; also called OsPN29950
B14: Novel Protein PN29950, prey clone aa 7-103 (other)
chain: TANLVGQITTTCTDDISVNRSAENSSQKNIPLDGVSAQSIKPSASSRSEPVGLGGGLQPKRRSRTAKPPGSSSDTGEVVNSSRISNSQNAVSMGQQV
notes: as for B13
B15: O. sativa Chilling-Inducible Protein CAA90866, prey clone aa 1-126 (other)
chain: MVEVEEVSNKMQVQMRLHPAAAAEEEDADLPLPALFDKASHLHSLASSSSLDQEGIRKGVDLLRRCDEMVSKVGLFSSNETKDDISTANLKYLLVPYYLGEMTERVAQEDRIPVLKASQDHLKEFI
notes: prey; AD fusion; output trait library; also called OsCAA90866; PN20311
B16: O. sativa Putative Pyrrolidone Carboxyl Peptidase, prey clone aa 92-222 (other)
chain: FGVNSGTTRFALENQAINEATFRCPDELGWKPQRAPIVSSDGSISNLRKTTVPVNEVNKSLQQMGFDVAPSDDAGRFVCNYVYYQSLRFAEQRGIKSLFVHFPLFTTISEEVQMNFVATLLEVLASQNYAQ
notes: prey; AD fusion; input trait library; two clones; also called OsAAG46136; PN23186
B17: Hypothetical Protein ORF020300-2233.2, Putative PP2A Regulatory Subunit, Similar to OsCAA90866, prey clone aa 1-206 (other)
chain: MVEVEEVSNKMQAQMRLHPAAAAEEEDADLPLPALFDKASHLHSLASSSSLDQEGIRKGVDLLRRCDEMVSKLGLFSSNETKDDVSTANLKYLLVPYYLGEMTERVAQEDRIPVLKASQDHLKEFISICEALELISEDELELSRQKQPDTMANRRAQKAARFKRQKAAETKLLEIKERKERRRRSLRAAALSAPIEAGEEDAFEDD
notes: prey; AD fusion; output trait library; three clones; also called OsORF020300-2233.2
B18: Hypothetical Protein ORF020300-2233.2, Putative PP2A Regulatory Subunit, Similar to OsCAA90866, prey clone aa 1-190 (other)
chain: MVEVEEVSNKMQAQMRLHPAAAAEEEDADLPLPALFDKASHLHSLASSSSLDQEGIRKGVDLLRRCDEMVSKLGLFSSNETKDDVSTANLKYLLVPYYLGEMTERVAQEDRIPVLKASQDHLKEFISICEALELISEDELELSRQKQPDTMANRRAQKAARFKRQKAAETKLLEIKERKERRRRSLRAAA
notes: as for B17
B19: Novel Protein PN23045, prey clone aa 240-287 (other)
chain: ILSKLVQAKELLKEYVEREKKKREERSETPKSNEAVTKFDGSLNSMRH
notes: prey; AD fusion; input trait library; two clones; also called OsPN23045
B20: Novel Protein PN23225, Similar to Triticum aestivum Initiation Factor (iso)4f p82 Subunit, prey clone aa 639-792 (other)
chain: FGIRILDEAQQCIEELQCPEYYSEIVKEAINLALDKGPNFIDPLVRLLEHLHTKKIFKTEDLKTGCLLYAALLEDIGIDLPLAPALFGEVVARLSLSCSLSFEVVEEILKAVEDTYFRKGIFDAVMKTMGGNSSGQAILSSHAVVIDACNKLLK
notes: prey; AD fusion; input trait library; also called OsPN23225
B21: Novel Protein PN29883, Fragment, prey clone aa 58-175 (other)
chain: YGQLKAAQPFFLLAGPNVIESEEHVLKMAKHIKGITTKLGLPLVFKSSFDKANRTSSKSFRGPGLEEGLKILEKVKATYDIPVVTDVHESHQCEAAGRVADIIQIPAFFCRQTDLLVA
notes: prey; AD fusion; output trait library; also called OsPN29883

What follows are binders tested against T1, O. sativa Serine/Threonine Protein Phosphatase PP2A-2, Catalytic Subunit, bait fragment aa 1-308 (Oryza sativa, UniProt A2XN40 1-307) (assay: yeast two-hybrid).
T1 construct: bait; also called OsPP2A-2; PN20254
T1 sequence (A2XN40 whole entry, the tested form may be a part): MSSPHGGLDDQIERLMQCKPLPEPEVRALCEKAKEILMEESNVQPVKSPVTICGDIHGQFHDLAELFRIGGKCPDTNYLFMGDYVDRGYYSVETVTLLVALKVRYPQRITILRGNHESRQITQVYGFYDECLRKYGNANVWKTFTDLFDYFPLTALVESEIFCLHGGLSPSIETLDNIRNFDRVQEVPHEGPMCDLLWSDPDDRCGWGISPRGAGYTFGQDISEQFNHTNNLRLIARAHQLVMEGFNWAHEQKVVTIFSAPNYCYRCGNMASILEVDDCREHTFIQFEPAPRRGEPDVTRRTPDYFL

| Binder | binding result |
| --- | --- |
| B1 | binds |
| B2 | binds |
| B3 | binds |
| B4 | binds |
| B5 | binds |

Biological target: T2, O. sativa Chitinase, Class III, bait fragment aa 10-200 (Oryza sativa)
T2 construct: bait; also called OsCHIB1; PN19651
T2 chain: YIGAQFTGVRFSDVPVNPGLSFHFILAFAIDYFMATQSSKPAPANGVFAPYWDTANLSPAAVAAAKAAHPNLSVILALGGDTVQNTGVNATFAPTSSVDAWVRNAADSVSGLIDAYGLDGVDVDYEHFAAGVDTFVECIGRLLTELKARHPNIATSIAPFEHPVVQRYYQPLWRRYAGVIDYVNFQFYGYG
Assay: yeast two-hybrid
Procedure: (§1) Yeast carrying the target gene construct was combined with yeast carrying the activation domain library. The two yeast strains mated to form diploid yeast and were plated on media that selected for expression of one or more Ga14p-responsive reporter genes. Thus, both hybrid proteins (i.e., the target “bait” protein and the activation domain “prey” protein) were expressed in a yeast reporter strain where an interaction between the test proteins results in transcription of the reporter genes […]. Colonies that arose after incubation were selected for further characterization. The activation domain plasmid was isolated from each colony obtained in the two-hybrid search. The sequence of the insert in this construct was obtained by sequence analysis (e.g., Sanger's dideoxy nucleotide chain termination method; see Ausubel et al., 1988, including updates up to 2002). Thus, the identity of positives obtained from these searches was determined by sequence analysis against proprietary and public (e.g., GENBANK®) nucleic acid and protein databases.
This example provides newly characterized rice proteins interacting with a rice chitinase, class III (OsCHIB1), and with rice cellulose synthase catalytic subunit, RSW1-like (OsCS). An automated, high-throughput yeast two-hybrid assay technology (provided by Myriad Genetics Inc., Salt Lake City, Utah) was used to search for protein interactions with the chitinase and cellulose synthase bait proteins.

| Binder | binding result |
| --- | --- |
| B6 | binds |
| B7 | binds |
| B8 | binds |
| B9 | binds |

Each binder was assayed against T3, OsSGT1, bait fragment aa 200-368 (Oryza sativa, UniProt Q0JL44 200-367) (assay: yeast two-hybrid).
T3 construct: bait; also called PN20285
T3 sequence: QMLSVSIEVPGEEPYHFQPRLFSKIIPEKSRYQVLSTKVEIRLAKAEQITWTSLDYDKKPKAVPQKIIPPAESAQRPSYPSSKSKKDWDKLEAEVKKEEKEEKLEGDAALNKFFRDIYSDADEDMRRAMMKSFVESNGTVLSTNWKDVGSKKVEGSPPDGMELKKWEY
Procedure: as §1
The rice SGT1 protein shares 74 and 75% amino acid sequence similarity with two Arabidopsis thaliana SGT1 homologs and 45% amino acid sequence similarity with Saccharomyces cerevisiae SGT1. In yeast, SGT1 is required for cell-cycle progression at the G1/S-phase and G2/M-phase transitions. In A. thaliana, SGT1b interacts with Rar1 and mediates disease resistance. Thus, in plants, SGT1 likely controls processes that are fundamental to disease resistance and development. The rice OsSGT1 protein was chosen as a bait for these interaction studies based on its potential relevance to disease resistance and development.

| Binder | binding result |
| --- | --- |
| B10 | binds |
| B11 | binds |

What follows are binders tested against T4, O. sativa Calreticulin Precursor, bait fragment aa 1-150 (Oryza sativa, UniProt Q9SLY8 1-150) (assay: yeast two-hybrid).
T4 construct: bait; also called OsCRTC; PN20544
T4 sequence (Q9SLY8 1-150): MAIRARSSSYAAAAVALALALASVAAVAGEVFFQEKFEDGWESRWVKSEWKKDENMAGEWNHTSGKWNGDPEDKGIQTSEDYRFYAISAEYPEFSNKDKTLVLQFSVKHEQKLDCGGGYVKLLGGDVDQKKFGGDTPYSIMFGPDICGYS

| Binder | binding result |
| --- | --- |
| B12 | binds |
| B13 | binds |
| B14 | binds |

Biological target: T5, O. sativa Chilling-Inducible Protein CAA90866, bait clone aa 100-250 (Oryza sativa)
T5 construct: bait; also called OsCAA90866; PN20311
T5 chain: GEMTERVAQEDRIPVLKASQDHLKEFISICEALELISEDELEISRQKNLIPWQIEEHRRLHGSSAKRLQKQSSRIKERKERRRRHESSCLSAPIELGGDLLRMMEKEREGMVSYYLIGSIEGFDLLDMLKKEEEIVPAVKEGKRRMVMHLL
Assay: yeast two-hybrid

| Binder | binding result |
| --- | --- |
| B15 | binds |
| B16 | binds |
| B17 | binds |
| B18 | binds |
| B19 | binds |
| B20 | binds |
| B21 | binds |
